In US7351555B2, “Mouse cytokine receptor Zcytor16” (ZymoGenetics, Inc., priority 2001, dated 2008):
Blank lines part the entries; values can stand above or below the molecule they belong to.

Legend:
[1] = K-562 cytotoxicity assay (MTT); type: cell-based, human; conditions: human, K-562 cells, 100 uM
Method: The K-562 cell line (CRL-243, ATCC) has attained widespread use as a highly sensitive in vitro target for cytotoxicity assays. K-562 blasts are multipotential, hematopoietic malignant cells that spontaneously differentiate into recognizable progenitors of the erythrocytic, granulocytic and monocytic series (Lozzio, B B et al., Proc. Soc. Exp. Biol. Med. 166: 546-550, 1981).
K562 cells were plated at 5,000 cells/well in 96-well tissue culture clusters (Costar) in DMEM phenol-free growth medium (Life Technologies) supplemented with pyruvate and 10% serum (HyClone). Next day, human recombinant IL-TIF (Example 19), BSA control or retinoic acid (known to be cytotoxic to K562 cells) were added. Seventy-two hours later, the vital stain MTT (Sigma, St Louis, Mo.), a widely used indicator of mitochondrial activity and cell growth, was added to the cells at a final concentration of 0.5 mg/ml. […] is converted to a purple formazan derivative by mitochondrial dehydrogenases. Four hours later, converted MMP was solubilized by adding an equal volume of acidic, isopropanol (0.04N HCl in absolute isopropanol) to the wells. Absorbance was measured at 570 nm, with background subtraction at 650 nm. In this experimental setting, absorbance reflects cell viability. Results shown in Table 12 are expressed as % cytotoxicity.

IL-TIF [2] = molecular target: T1, IL-TIF (Homo sapiens, UniProt Q9GZX6); experiment: COS cell secretion trap binding of Zcytor16sR/Fc4 to Class II cytokines; design: expressed in transfected cells; host or cells: COS cells; conditions: 1-3 μg/ml Zcytor16sR-Fc4; COS cells transfected with IL-TIF cDNA
T1 sequence (Q9GZX6 34-179): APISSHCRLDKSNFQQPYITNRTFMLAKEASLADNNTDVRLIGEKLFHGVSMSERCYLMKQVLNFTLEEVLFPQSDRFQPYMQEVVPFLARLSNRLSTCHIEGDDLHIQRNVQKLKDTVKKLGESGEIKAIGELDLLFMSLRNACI
Method: COS cell transfections were performed as follows: A mixture of 0.5 μg DNA and 5 μl lipofectamine (Gibco BRL) in 92 ul serum free DMEM media (55 mg sodium pyruvate, 146 mg L-glutamine, 5 mg transferrin, 2.5 mg insulin, 1 μg selenium and 5 mg fetuin in 500 ml DMEM) was incubated at room temperature for 30 minutes and then 400 μl serum free DMEM media added. A 500 μl mixture was added onto COS cells plated on 12-well tissue culture plate at 1.5×10^5 COS cells/well and previously incubated for 5 hours at 37° C. An additional 500 μl 20% FBS DMEM media (100 ml FBS, 55 mg sodium pyruvate and 146 mg L-glutamine in 500 ml DMEM) was added and the plates were incubated overnight.
The secretion trap was performed as follows: Media was rinsed off cells with PBS and fixed for 15 minutes with 1.8% Formaldehyde in PBS. Cells were then washed with TNT (0.1M Tris-HCl, 0.15M NaCl, and 0.05% Tween-20 in H2O). Cells were permeated with 0.1% Triton-X in PBS for 15 minutes and washed again with TNT. […]

IL-TIF [3] = molecular target: T1, IL-TIF; experiment: Inhibition of IL-TIF reporter activation in MES 13 cells by Zcytor16-Fc4; type: cell-based; conditions: for LU w/10 μg/ml zcytoR16: zcytoR16 10 μg/ml
Method: MES 13 cells (ATCC No. CRL-1927) were plated at 10,000 cells/well in 96-well tissue culture clusters (Costar) in DMEM growth medium (Life Technologies) supplemented with pyruvate and 10% serum (HyClone). Next day, the medium was switched to serum free DMEM medium by substituting 0.1% BSA (Fraction V; Sigma) for serum. This medium also contained the adenoviral construct KZ136 (below) that encodes a luciferase reporter mini-gene driven by SRE and STAT elements, at a 1000:1 multiplicity of infection (m.o.i.), i.e. 1000 adenoviral particles per cell. After allowing 24 h for the incorporation of the adenoviral construct in the cells, the media were changed and replaced with serum-free media. Human recombinant IL-TIF with or without a recombinant Zcytor16-Fc4 fusion was added at the indicated final concentration in the well (as described in Table 11, below). Dilutions of both the IL-TIF and Zcytor16-Fc4 were performed in serum-free medium. 0.1% BSA was added for a basal assay control. 4 h later, cells were lysed and luciferase activity, denoting activation of the reporter gene, was determined in the lysate using an Luciferase Assay System assay kit (Promega) and a Labsystems Luminoskan luminometer (Labsystems, Helsinki, Finland). Activity was expressed as luciferase units (LU) in the lysate.
The construction of the adenoviral KZ136 vector was as follows. The original KZ136 vector is disclosed in Poulsen, L K et al. J. Biol. Chem. 273:6228-6232, 1998. The CMV promoter/enhancer and SV40 pA sequences were removed from pACCMV.pLpA (T. C. Becker et al., […] 43:161-189, 1994.) and replaced with a linker containing Asp718/KpnI and HindIII sites (oligos ZC13252 (SEQ ID NO:26) and ZC13453 (SEQ ID NO:27)). The STAT/SRE driven luciferase reporter cassette was exised from vector KZ136 (Poulsen, L K et al., supra.).) as a Asp718/KpnI-HindIII fragment and inserted into the adapted pAC vector. Recombinant KZ136 Adenovirus was produced by transfection with JM17 Adenovirus into 293 cells as described in T. C. Becker et al. supra.). Plaque purified virus was amplified and used to infect cultured cells at 5-50 pfu/cell 12-48 hours before assay. Luciferase reporter assays were performed as described in 96 well microplates as per Poulsen, L K et al., supra.).

IL-TIF [4] = molecular target: T1, IL-TIF; experiment: IL-TIF antagonist activity in BaF3/CRF2-4/zcytor11 Alamar Blue proliferation assay; type: cell-based; design: the coding region. for human IL-TIF, without its stop codon; made in house; host or cells: BHK 570 cells; conditions: Zcytor16 at 10 μg/ml; IL-TIF at all concentrations (0.06-50 ng/ml)
Source text: Purified human IL-TIF-CEE (Example 19) was used to test for the presence of proliferation activity as described below. Purified humsn Zcytor16-Fc4 (Example 11) was used to antagonize the proliferative response of the IL-TIF in this assay as described below.
BaF3/CRF2-4/zcytor11 cells were spun down and washed in the complete media, described in Example 7A above, but without mIL-3 (hereinafter referred to as “mIL-3 free media”). The cells were spun and washed 3 times to ensure the removal of the mIL-3. Cells were then counted in a hemacytometer. Cells were plated in a 96-well format at 5000 cells per well in a volume of 100 μl per well using the mIL-3 free media.
Proliferation of the BaF3/CRF2-4/zcytor11 cells was assessed using IL-TIF-CEE protein diluted with mIL-3 free media to 50, 10, 2, 1, 0.5, 0.25, 0.13, 0.06 ng/ml concentrations. 100 μl of the diluted protein was added to the BaF3/CRF2-4/zcytor11 cells. […] Alamar Blue gives a fluourometric readout based on number of live cells, and is thus a direct measurement of cell proliferation in comparison to a negative control. […] Plates were read on the Fmax™ plate reader (Molecular Devices Sunnyvale, Calif.) using the SoftMax™ Pro program, at wavelengths 544 (Excitation) and 590 (Emmission). […] The response, as measured, was approximately 15-fold over background at the high end of 50 ng/ml down to a 2-fold induction at the low end of 0.06 ng/ml. […]

Molecule: CC1=C(/C=C/C(C)=C/C=C/C(C)=C/C(=O)O)C(C)(C)CCC1 [Retinoic acid, reference compound]
cytotoxicity at 72 h, 100 µM [1]: 62%

binding of Zcytor16sR/Fc4 to cytokine-transfected COS cells (IL-TIF [2]): positive binding
LU w/10 μg/ml zcytoR16 (IL-TIF [3]; IL-TIF 0 ng/ml (basal BSA control)): 104 ± 2 LU
LU w/10 μg/ml zcytoR16 (IL-TIF [3]; IL-TIF 0.03 ng/ml): 104 ± 4 LU
LU w/10 μg/ml zcytoR16 (IL-TIF [3]; IL-TIF 0.3 ng/ml): 99 ± 6 LU
LU w/10 μg/ml zcytoR16 (IL-TIF [3]; IL-TIF 3 ng/ml): 98 ± 15 LU
LU w/10 μg/ml zcytoR16 (IL-TIF [3]; IL-TIF 30 ng/ml): 110 ± 3 LU
LU w/10 μg/ml zcytoR16 (IL-TIF [3]; IL-TIF 300 ng/ml): 112 ± 30 LU
response to IL-TIF in presence of Zcytor16 (IL-TIF [4]): brought down to background
B1: Zcytor16sR/Fc4: soluble human Zcytor16 polypeptide (residue 22 to 231 of SEQ ID NO:2) fused to a C-terminal Fc4 tag (protein)
chain: TQSTHESLKPQRVQFQSRNFHNILQWQPGRALTGNSSVYFVQYKIYGQRQWKNKEDCWGTQELSCDLTSETSDIQEPYYGRVRAASAGSYSEWSMTPRFTPWWETKIDPPVMNITQVNGSLLVILHAPNLPYRYQKEKNVSIEDYYELLYRVFIINNSLEKEQKVYEGAHRAVEIEALTPHSSYCVVAEIYQPMLDRRSQRSEERCVEIPEPRSSDKTHTCPPCPAPEAEGAPSVFLFPPKPKDTLMISRTPEVTCVVVDVSHEDPEVKFNWYVDGVEVHNAKTKPREEQYNSTYRVVSVLTVLHQDWLNGKEYKCKVSNKALPSSIEKTISKAKGQPREPQVYTLPPSRDELTKNQVSLTCLVKGFYPSDIAVEWESNGQPENNYKTTPPVLDSDGSFFLYSKLTVDKSRWQQGNVFSCSVMHEALHNHYTQKSLSLSPGK
antagonism of the response to IL-TIF (IL-TIF [3]; even at the highest dose of IL-TIF used): effectively blocks the response to IL-TIF
